Source: article PMC7367873, “Dissecting the sequence determinants for dephosphorylation by the catalytic subunits of phosphatases PP1 and PP2A” (Nature Communications, 2020)
Blank lines part the entries; values can stand above or below the molecule they belong to.

Experiments:
[1] = system: GFP-14-3-3β and its binding proteins; assay: GFP-14-3-3β co-IP with LC-MS/MS label-free quantification, untreated versus PP1c-treated; set-up: species or system human
GFP-14-3-3β = GFP-14-3-3β co-IP with LC-MS/MS, untreated GFP-14-3-3β versus GFP control (14-3-3 interactome); assay type: binding, human
[2] = pairwise comparison PP1 vs untreated, student's t-test, 3 replicates each, LC-MS/MS label-free quantification
[3] = pairwise comparison untreated GFP-14-3-3β vs GFP, student's t-test, 3 replicates each, LC-MS/MS label-free quantification
[4] = PP1 vs untreated, LFQ intensities, replicates 1-3
[5] = untreated vs GFP, LFQ intensities, replicates 1-3

B1: CYFIP1 (protein, UniProt Q7L576 1-1253, looked up)
Cytoplasmic FMR1-interacting …: MAAQVTLEDALSNVDLLEELPLPDQQPCIEPPPSSLLYQPNFNTNFEDRNAFVTGIARYIEQATVHSSMNEMLEEGQEYAVMLYTWRSCSRAIPQVKCNEQPNRVEIYEKTVEVLEPEVTKLMNFMYFQRNAIERFCGEVRRLCHAERRKDFVSEAYLITLGKFINMFAVLDELKNMKCSVKNDHSAYKRAAQFLRKMADPQSIQESQNLSMFLANHNKITQSLQQQLEVISGYEELLADIVNLCVDYYENRMYLTPSEKHMLLKVMGFGLYLMDGSVSNIYKLDAKKRINLSKIDKYFKQLQVVPLFGDMQIELARYIKTSAHYEENKSRWTCTSSGSSPQYNICEQMIQIREDHMRFISELARYSNSEVVTGSGRQEAQKTDAEYRKLFDLALQGLQLLSQWSAHVMEVYSWKLVHPTDKYSNKDCPDSAEEYERATRYNYTSEEKFALVEVIAMIKGLQVLMGRMESVFNHAIRHTVYAALQDFSQVTLREPLRQAIKKKKNVIQSVLQAIRKTVCDWETGHEPFNDPALRGEKDPKSGFDIKVPRRAVGPSSTQLYMVRTMLESLIADKSGSKKTLRSSLEGPTILDIEKFHRESFFYTHLINFSETLQQCCDLSQLWFREFFLELTMGRRIQFPIEMSMPWILTDHILETKEASMMEYVLYSLDLYNDSAHYALTRFNKQFLYDEIEAEVNLCFDQFVYKLADQIFAYYKVMAGSLLLDKRLRSECKNQGATIHLPPSNRYETLLKQRHVQLLGRSIDLNRLITQRVSAAMYKSLELAIGRFESEDLTSIVELDGLLEINRMTHKLLSRYLTLDGFDAMFREANHNVSAPYGRITLHVFWELNYDFLPNYCYNGSTNRFVRTVLPFSQEFQRDKQPNAQPQYLHGSKALNLAYSSIYGSYRNFVGPPHFQVICRLLGYQGIAVVMEELLKVVKSLLQGTILQYVKTLMEVMPKICRLPRHEYGSPGILEFFHHQLKDIVEYAELKTVCFQNLREVGNAILFCLLIEQSLSLEEVCDLLHAAPFQNILPRVHVKEGERLDAKMKRLESKYAPLHLVPLIERLGTPQQIAIAREGDLLTKERLCCGLSMFEVILTRIRSFLDDPIWRGPLPSNGVMHVDECVEFHRLWSAMQFVYCIPVGTHEFTVEQCFGDGLHWAGCMIIVLLGQQRRFAVLDFCYHLLKVQKHDGKDEIIKNVPLKKMVERIRKFQILNDEIITILDKYLKSGDGEGTPVEHVRCFQPPIHQSLASS
Difference (log2), PP1 vs untreated [1, 2]: -2.17 log2 | Difference (log2), untreated vs GFP (GFP-14-3-3β; [3]): 3.924 log2

B3: BAIAP2 (protein, UniProt Q9UQB8 1-552, looked up)
BAR/IMD domain-containing …: MSLSRSEEMHRLTENVYKTIMEQFNPSLRNFIAMGKNYEKALAGVTYAAKGYFDALVKMGELASESQGSKELGDVLFQMAEVHRQIQNQLEEMLKSFHNELLTQLEQKVELDSRYLSAALKKYQTEQRSKGDALDKCQAELKKLRKKSQGSKNPQKYSDKELQYIDAISNKQGELENYVSDGYKTALTEERRRFCFLVEKQCAVAKNSAAYHSKGKELLAQKLPLWQQACADPSKIPERAVQLMQQVASNGATLPSALSASKSNLVISDPIPGAKPLPVPPELAPFVGRMSAQESTPIMNGVTGPDGEDYSPWADRKAAQPKSLSPPQSQSKLSDSYSNTLPVRKSVTPKNSYATTENKTLPRSSSMAAGLERNGRMRVKAIFSHAAGDNSTLLSFKEGDLITLLVPEARDGWHYGESEKTKMRGWFPFSYTRVLDSDGSDRLHMSLQQGKSSSTGNLLDKDDLAIPPPDYGAASRAFPAQTASGFKQRPYSVAVPAFSQGLDDYGARSMSRNPFAHVQLKPTVTNDRCDLSAQGPEGREHGDGSARTLAGR
Difference (log2), PP1 vs untreated [1, 4]: -1.977 log2 | Difference (log2), untreated vs GFP (GFP-14-3-3β; [5]): 2.991 log2

B5: MPRIP (protein, UniProt Q6WCQ1 2-1025, looked up)
Myosin phosphatase …: SAAKENPCRKFQANIFNKSKCQNCFKPRESHLLNDEDLTQAKPIYGGWLLLAPDGTDFDNPVHRSRKWQRRFFILYEHGLLRYALDEMPTTLPQGTINMNQCTDVVDGEGRTGQKFSLCILTPEKEHFIRAETKEIVSGWLEMLMVYPRTNKQNQKKKRKVEPPTPQEPGPAKVAVTSSSSSSSSSSSIPSAEKVPTTKSTLWQEEMRTKDQPDGSSLSPAQSPSQSQPPAASSLREPGLESKEEESAMSSDRMDCGRKVRVESGYFSLEKTKQDLKAEEQQLPPPLSPPSPSTPNHRRSQVIEKFEALDIEKAEHMETNAVGPSPSSDTRQGRSEKRAFPRKRDFTNEAPPAPLPDASASPLSPHRRAKSLDRRSTEPSVTPDLLNFKKGWLTKQYEDGQWKKHWFVLADQSLRYYRDSVAEEAADLDGEIDLSACYDVTEYPVQRNYGFQIHTKEGEFTLSAMTSGIRRNWIQTIMKHVHPTTAPDVTSSLPEEKNKSSCSFETCPRPTEKQEAELGEPDPEQKRSRARERRREGRSKTFDWAEFRPIQQALAQERVGGVGPADTHEPLRPEAEPGELERERARRREERRKRFGMLDATDGPGTEDAALRMEVDRSPGLPMSDLKTHNVHVEIEQRWHQVETTPLREEKQVPIAPVHLSSEDGGDRLSTHELTSLLEKELEQSQKEASDLLEQNRLLQDQLRVALGREQSAREGYVLQATCERGFAAMEETHQKKIEDLQRQHQRELEKLREEKDRLLAEETAATISAIEAMKNAHREEMERELEKSQRSQISSVNSDVEALRRQYLEELQSVQRELEVLSEQYSQKCLENAHLAQALEAERQALRQCQRENQELNAHNQELNNRLAAEITRLRTLLTGDGGGEATGSPLAQGKDAYELEVLLRVKESEIQYLKQEISSLKDELQTALRDKKYASDKYKDIYTELSIAKAKADCDISRLKEQLKAATEALGEKSPDSATVSGYDIMKSKSNPDFLKKDRSCVTRQLRNIRSKSVIEQVSWDT
Difference (log2), PP1 vs untreated [1, 4]: -1.951 log2 | Difference (log2), untreated vs GFP (GFP-14-3-3β; [5]): 1.085 log2

More lines, main results first:

Difference (log2), PP1 vs untreated [1, 4]: -2.012 log2
B2: ZYX (protein, UniProt Q15942 2-572, looked up)
Zyxin: AAPRPSPAISVSVSAPAFYAPQKKFGPVVAPKPKVNPFRPGDSEPPPAPGAQRAQMGRVGEIPPPPPEDFPLPPPPLAGDGDDAEGALGGAFPPPPPPIEESFPPAPLEEEIFPSPPPPPEEEGGPEAPIPPPPQPREKVSSIDLEIDSLSSLLDDMTKNDPFKARVSSGYVPPPVATPFSSKSSTKPAAGGTAPLPPWKSPSSSQPLPQVPAPAQSQTQFHVQPQPQPKPQVQLHVQSQTQPVSLANTQPRGPPASSPAPAPKFSPVTPKFTPVASKFSPGAPGGSGSQPNQKLGHPEALSAGTGSPQPPSFTYAQQREKPRVQEKQHPVPPPAQNQNQVRSPGAPGPLTLKEVEELEQLTQQLMQDMEHPQRQNVAVNELCGRCHQPLARAQPAVRALGQLFHIACFTCHQCAQQLQGQQFYSLEGAPYCEGCYTDTLEKCNTCGEPITDRMLRATGKAYHPHCFTCVVCARPLEGTSFIVDQANRPHCVPDYHKQYAPRCSVCSEPIMPEPGRDETVRVVALDKNFHMKCYKCEDCGKPLSIEADDNGCFPLDGHVLCRKCHTARAQT
Difference (log2), untreated vs GFP (GFP-14-3-3β; [5]): -0.162 log2

Difference (log2), PP1 vs untreated [1, 2]: -2.05 log2
B4: SORBS2 (protein, UniProt O94875 1-1100, looked up)
Sorbin and SH3 …: MSYYQRPFSPSAYSLPASLNSSIVMQHGTSLDSTDTYPQHAQSLDGTTSSSIPLYRSSEEEKRVTVIKAPHYPGIGPVDESGIPTAIRTTVDRPKDWYKTMFKQIHMVHKPDDDTDMYNTPYTYNAGLYNPPYSAQSHPAAKTQTYRPLSKSHSDNSPNAFKDASSPVPPPHVPPPVPPLRPRDRSSTEKHDWDPPDRKVDTRKFRSEPRSIFEYEPGKSSILQHERPASLYQSSIDRSLERPMSSASMASDFRKRRKSEPAVGPPRGLGDQSASRTSPGRVDLPGSSTTLTKSFTSSSPSSPSRAKGGDDSKICPSLCSYSGLNGNPSSELDYCSTYRQHLDVPRDSPRAISFKNGWQMARQNAEIWSSTEETVSPKIKSRSCDDLLNDDCDSFPDPKVKSESMGSLLCEEDSKESCPMAWGSPYVPEVRSNGRSRIRHRSARNAPGFLKMYKKMHRINRKDLMNSEVICSVKSRILQYESEQQHKDLLRAWSQCSTEEVPRDMVPTRISEFEKLIQKSKSMPNLGDDMLSPVTLEPPQNGLCPKRRFSIEYLLEEENQSGPPARGRRGCQSNALVPIHIEVTSDEQPRAHVEFSDSDQDGVVSDHSDYIHLEGSSFCSESDFDHFSFTSSESFYGSSHHHHHHHHHHHRHLISSCKGRCPASYTRFTTMLKHERARHENTEEPRRQEMDPGLSKLAFLVSPVPFRRKKNSAPKKQTEKAKCKASVFEALDSALKDICDQIKAEKKRGSLPDNSILHRLISELLPDVPERNSSLRALRRSPLHQPLHPLPPDGAIHCPPYQNDCGRMPRSASFQDVDTANSSCHHQDRGGALQDRESPRSYSSTLTDMGRSAPRERRGTPEKEKLPAKAVYDFKAQTSKELSFKKGDTVYILRKIDQNWYEGEHHGRVGIFPISYVEKLTPPEKAQPARPPPPAQPGEIGEAIAKYNFNADTNVELSLRKGDRVILLKRVDQNWYEGKIPGTNRQGIFPVSYVEVVKKNTKGAEDYPDPPIPHSYSSDRIHSLSSNKPQRPVFTHENIQGGGEPFQALYNYTPRNEDELELRESDVIDVMEKCDDGWFVGTSRRTKFFGTFPGNYVKRL
Difference (log2), untreated vs GFP (GFP-14-3-3β; [3]): 3.7091 log2

Difference (log2), PP1 vs untreated ([1]; log2 difference, pairwise comparison PP1 vs untreated, label-free quantification, 3 replicates each): 1.5668
B6: SND1 (protein, UniProt Q7KZF4 2-910, looked up)
Staphylococcal nuclease …: ASSAQSGGSSGGPAVPTVQRGIIKMVLSGCAIIVRGQPRGGPPPERQINLSNIRAGNLARRAAATQPDAKDTPDEPWAFPAREFLRKKLIGKEVCFTIENKTPQGREYGMIYLGKDTNGENIAESLVAEGLATRREGMRANNPEQNRLSECEEQAKAAKKGMWSEGNGSHTIRDLKYTIENPRHFVDSHHQKPVNAIIEHVRDGSVVRALLLPDYYLVTVMLSGIKCPTFRREADGSETPEPFAAEAKFFTESRLLQRDVQIILESCHNQNILGTILHPNGNITELLLKEGFARCVDWSIAVYTRGAEKLRAAERFAKERRLRIWRDYVAPTANLDQKDKQFVAKVMQVLNADAIVVKLNSGDYKTIHLSSIRPPRLEGENTQDKNKKLRPLYDIPYMFEAREFLRKKLIGKKVNVTVDYIRPASPATETVPAFSERTCATVTIGGINIAEALVSKGLATVIRYRQDDDQRSSHYDELLAAEARAIKNGKGLHSKKEVPIHRVADISGDTQKAKQFLPFLQRAGRSEAVVEYVFSGSRLKLYLPKETCLITFLLAGIECPRGARNLPGLVQEGEPFSEEATLFTKELVLQREVEVEVESMDKAGNFIGWLHIDGANLSVLLVEHALSKVHFTAERSSYYKSLLSAEEAAKQKKEKVWAHYEEQPVEEVMPVLEEKERSASYKPVFVTEITDDLHFYVQDVETGTQLEKLMENMRNDIASHPPVEGSYAPRRGEFCIAKFVDGEWYRARVEKVESPAKIHVFYIDYGNREVLPSTRLGTLSPAFSTRVLPAQATEYAFAFIQVPQDDDARTDAVDSVVRDIQNTQCLLNVEHLSAGCPHVTLQFADSKGDVGLGLVKEGLVMVEVRKEKQFQKVITEYLNAQESAKSARLNLWRYGDFRADDADEFGYSR
Difference (log2), untreated vs GFP (GFP-14-3-3β; log2 difference, pairwise comparison untreated vs GFP, label-free quantification, 3 replicates each): -0.5008
